Patent US20230109275A1 (AUTOLUS, published 2023)
Changes are numbered by the printed parent chain. Names and notes keep the numbering of the source. Blank lines part the entries; values can stand above or below the binder they belong to.

Legend:
[1] = biological target: T1, TRBC1 (T cell receptor beta-chain constant domain 1), interaction partner protein injected in SPR (human, UniProt P01850 1-129, limits assumed); test: SPR (Biacore T200), antibody captured on anti-human IgG chip, TRBC1 injected, 25 C, 1:1 Langmuir fit
T1 construct: also called TCR beta constant region 1
Protocol: (§1) Surface plasmon resonance (SPR) was carried out on several of antibody variants of hJOVI-1 to ascertain affinity, association and dissociation rates. The sequence details of these variants Mut1 to Mut15 used in the Examples section of the present patent application are included in Tables 1 and 2. These anti-TRBC antibody variants have specificity for either TRBC1 or TRBC2.
(§2) SPR experiments were performed using a Biacore T200 instrument using HBSP1 as the running and dilution buffer (GE Healthcare BioSciences). BIAevaluation software version 2.0 (GE Healthcare) was used for data processing. For determination of the binding kinetics, mouse anti-human IgG (GE Healthcare) was covalently coupled to a CM5 Sensor Chip (GE Healthcare). Anti-TRBC1 or anti-TRBC2 antibodies were captured onto the flow cell, and various concentrations of interaction partner protein (TRBC1 or TRBC2) were injected over the flow cell at a flow rate of […] at a temperature of 25° C. A double reference subtraction was performed using buffer alone. Kinetic rate constants were obtained by curve fitting according to a 1:1 Langmuir binding model.

[2] = biological target: T2, TRBC2 on HPB-ALL cells engineered to express only TRBC2 (human, UniProt A0A5B9 1-178); test: internalisation of pHrodo red conjugated antibody, flow cytometry, 24 h
T2 construct: whole, on cells; also called HPB-ALL TRBC2; HPB-ALL TRBC2+
Protocol: (§3) Cell uptake of the anti-TRBC1 antibody hJOVI-1 and the anti-TRBC2 antibody KFN was tested on HPB-ALL cells that were engineered to express only TRBC1, only TRBC2, or which were the TRBC was knocked-out (KO). To this aim, the pH-sensitive fluorophore
(§4) Zenon pHrodo iFL red (Thermo Scientific), which has a 560/585 nm spectrum, was used to conjugate hJOVI-1 and KFN in IgG format following the manufacturer's recommendations. The irrelevant anti-HEL antibody was also conjugated for use as control. The conjugated antibodies were incubated with HPB-ALL TRBC1, HPB-ALL TRBC2 and HPB-ALL KO cells for 24 h at 37° C., 5% CO2. Test antibodies hJOVI-1, KFN, and anti-HEL were applied at 5 μg/ml in a 96-well plate with 5×10⁴ cells/well in 100 μl of RPMI 10% FBS. After 24 h, cells were washed, harvested and stained with 1:100 LIVE/DEAD™ Fixable Violet Dead Cell Stain (Thermofisher) for 10 min before being analysed by flow cytometry using a Fortessa flow cytometer (BD).

[3] = biological target: T2, TRBC2 on HPB-ALL cells engineered to …; test: internalisation (9h), pHrodo green MFI, flow cytometry
[4] = biological target: T3, TRBC1 on HPB-ALL cells engineered to express only TRBC1 (human, UniProt P01850 1-176); test: as above
T3 construct: whole, on cells; also called HPB-ALL TRBC1; HPB-ALL TRBC1+

[5] = biological target: T3, TRBC1 on HPB-ALL cells engineered to …; test: internalisation of pHrodo red conjugated antibody, flow cytometry, 24 h
Protocol: as §3, §4

[6] = biological target: T4, TRBC2 (T cell receptor beta-chain constant domain 2), interaction partner protein injected in SPR (human, UniProt A0A5B9 1-129, limits assumed); test: SPR (Biacore T200), antibody captured on anti-human IgG chip, TRBC2 injected, 25 C, 1:1 Langmuir fit
T4 construct: the construct is not described; also called TCR beta constant region 2
Protocol: as §1, §2

[7] = biological target: T2, TRBC2 on HPB-ALL cells engineered to …; test: internalisation of pHrodo green conjugated antibody, flow cytometry

T4 sequence (A0A5B9 1-129 limits assumed): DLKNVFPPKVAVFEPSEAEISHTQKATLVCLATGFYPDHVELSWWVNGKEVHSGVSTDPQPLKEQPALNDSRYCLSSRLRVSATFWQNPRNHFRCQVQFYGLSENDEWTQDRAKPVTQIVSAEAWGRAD
T1 sequence (P01850 1-129 limits assumed): as the sequence (A0A5B9 1-129 limits assumed) above, with K3N, N4K, K9E, Y36F counted along it

Kd [1]: 203 nM | koff [1]: 0.0177 s⁻¹ | kon [1]: 87300 M⁻¹ s⁻¹ | binding result [7]: no binding
B6: Mut11 (antibody, V domains shown)
VH: QVQLVQSGAEVKKPGASVKVSCKASGYTFTGYVMHWVRQAPGQGLEWMGFINPYNDDIQSNERFRGRVTMTRDTSISTAYMELSRLRSDDTAVYYCARGAGYNFDAAYRFFDFWGQGTMVTVSS
VL: DIVMTQSPLSLPVTPGEPASISCRSSQRLVHSNGNTYLHWYLQKPGQSPRLLIYRVSNRFPGVPDRFSGSGSGTDFTLKISRVEAEDVGVYYCSQSTHVPYTFGQGTKLEIK
notes: Variant of hJOVI-1; IgG format; also called VH G106A; anti-TRBC1 antibody Mut11

Kd [1]: 90 nM | koff [1]: 0.00951 s⁻¹ | kon [1]: 106000 M⁻¹ s⁻¹
B7: Mut10 (antibody, V domains shown)
VH: B6 VH with Y102M, A106G
VL: B6 VL
notes: Variant of hJOVI-1; captured by anti-human IgG in SPR; also called VH Y102M

Kd [1]: 7.69 nM | koff [1]: 0.000756 s⁻¹ | kon [1]: 98300 M⁻¹ s⁻¹
B9: Mut8 (antibody, V domains shown)
VH: B6 VH with G31S, A106G
VL: B6 VL
notes: Variant of hJOVI-1; captured by anti-human IgG in SPR; also called VH G31S

Kd [1]: 28.9 nM | koff [1]: 0.00248 s⁻¹ | kon [1]: 85800 M⁻¹ s⁻¹
B10: Mut9 (antibody, V domains shown)
VH: B6 VH with G26P, T28K, A106G
VL: B6 VL
notes: Variant of hJOVI-1; captured by anti-human IgG in SPR; also called VH G26P, T28K

Kd [1]: 426 nM | koff [1]: 0.0457 s⁻¹ | kon [1]: 107000 M⁻¹ s⁻¹
B11: Mut5 (antibody, V domains shown)
VH: B6 VH with Y32F, A106G
VL: B6 VL
notes: Variant of hJOVI-1; captured by anti-human IgG in SPR; also called VH Y32F

Kd [6]: 1900 nM | koff [6]: 0.0832 s⁻¹ | kon [6]: 43800 M⁻¹ s⁻¹
B12: Mut15 (antibody, V domains shown)
VH: B6 VH with T28K, Y32F, A100N, Y102L, N103M, A106G
VL: B6 VL with N35R
notes: Variant of hJOVI-1; IgG format; also called TRBC2 antibody Mut15; KFN variant Mut15
binding result [4]: no binding (tested: not printed on the sheet)

Kd [1]: 707 nM | koff [1]: 0.0613 s⁻¹ | kon [1]: 86800 M⁻¹ s⁻¹
B13: Mut12 (antibody, V domains shown)
VH: B6 VH with T28K, Y32F, A100N, N103L, A106G
VL: B6 VL with N35K
notes: Variant of hJOVI-1; captured by anti-human IgG in SPR; also called VH T28K, Y32F, A100N, N103L; VL N35K

Second part, the binder before the results:

B1: hJOVI-1 (humanised JOVI-1 antibody, reference antibody) (antibody, V domains shown)
VH: B6 VH with A106G
VL: B6 VL
notes: Tested in IgG format and captured by anti-human IgG in SPR; also called aTRBC1; anti-TRBC1 antibody hJOVI-1
Kd [1]: 2.57 nM | koff [1]: 0.000618 s⁻¹ | kon [1]: 238000 M⁻¹ s⁻¹ | binding result [2]: no binding (tested: 5 µg/ml)

B2: Mut11-MMAE (antibody, V domains shown)
VH: B6 VH
VL: B6 VL
modifications: mc-vc-PAB-MMAE conjugated to reduced inter-chain cysteines; drug-antibody ratio 3.1
notes: also called MMAE-conjugated Mut11; MMAE conjugated Mut11
binding result [3]: no binding (tested: not printed on the sheet)

B3: Mut15-MMAE (antibody, V domains shown)
VH: B6 VH with T28K, Y32F, A100N, Y102L, N103M, A106G
VL: B6 VL with N35R
modifications: mc-vc-PAB-MMAE conjugated to reduced inter-chain cysteines; drug-antibody ratio 3.2
notes: also called MMAE-conjugated Mut15; MMAE conjugated Mut15
binding result [4]: no binding (tested: not printed on the sheet)

B4: Mut3 (KFN) (antibody, V domains shown)
VH: B6 VH with T28K, Y32F, A100N, A106G
VL: B6 VL
notes: Variant of hJOVI-1; IgG format; also called anti-TRBC2 antibody KFN; anti-TRBC2 clone KFN
binding result [5]: no binding (tested: 5 µg/ml) | Kd [6]: 479 nM | koff [6]: 0.0386 s⁻¹ | kon [6]: 83000 M⁻¹ s⁻¹

B5: Mut4 (RFN) (antibody, V domains shown)
VH: B6 VH with T28R, Y32F, A100N, A106G
VL: B6 VL
notes: Variant of hJOVI-1; captured by anti-human IgG in SPR
Kd [6]: 582 nM | koff [6]: 0.045 s⁻¹ | kon [6]: 77600 M⁻¹ s⁻¹

B8: Mut13 (antibody, V domains shown)
VH: B6 VH with T28K, Y32F, A100N, A106G
VL: B6 VL with N35K
notes: Variant of hJOVI-1; captured by anti-human IgG in SPR; also called VH T28K, Y32F, A100N; VL N35K
Kd [1]: 1000 nM | koff [1]: 0.108 s⁻¹ | kon [1]: 107000 M⁻¹ s⁻¹

B14: Mut14 (antibody, V domains shown)
VH: B6 VH with T28K, Y32F, A100N, A106G, A107S
VL: B6 VL
notes: Variant of hJOVI-1; IgG format; also called VH T28K, Y32F, A100N, A107S
Kd [1]: 3590 nM | koff [1]: 0.323 s⁻¹ | kon [1]: 90000 M⁻¹ s⁻¹
